Reference: patent US20110275559A1, “Long-Acting Y2 and/or Y4 Receptor Agonists” (Novo Nordisk A/S, priority 2008, published 2011)
Like-named read-outs stand apart in the source and are kept apart here. *1 amine or outer side, *2 acyl side, *3 side chain or, on linkers, in order; H or OH if unused. Where a SMILES comes first, the peptide text is derived from it. Where no end group is shown, it is not given here. Side-chain parts run from the residue outwards. The star is where a group is joined. C20 diacid = O=C(O)CCCCCCCCCCCCCCCCCCC(=O)*; C18 diacid = O=C(O)CCCCCCCCCCCCCCCCC(=O)*; γGlu = O=C(O)[C@H](CCC(=O)[*:2])N[*:1]; Trx = NC[C@H]1CC[C@H](C(=O)O)CC1; AEEA = NCCOCCOCC(=O)O

T1: Y2 receptor (Homo sapiens, UniProt P49146)
T1 construct: host or cells: ACTOne HEK-293 cells
T1 sequence (P49146 1-381): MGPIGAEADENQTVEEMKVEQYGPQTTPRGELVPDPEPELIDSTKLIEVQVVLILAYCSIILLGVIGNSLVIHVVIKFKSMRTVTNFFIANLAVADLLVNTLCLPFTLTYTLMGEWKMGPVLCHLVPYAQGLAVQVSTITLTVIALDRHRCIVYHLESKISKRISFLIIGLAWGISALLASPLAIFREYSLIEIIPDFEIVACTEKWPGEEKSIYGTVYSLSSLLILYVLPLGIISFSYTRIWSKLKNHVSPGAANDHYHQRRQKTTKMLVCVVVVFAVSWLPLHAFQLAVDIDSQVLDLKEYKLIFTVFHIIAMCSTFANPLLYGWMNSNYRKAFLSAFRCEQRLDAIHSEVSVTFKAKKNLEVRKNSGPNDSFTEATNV

T2: Y2 receptor (UniProt P49146 1-381, limits assumed)
T2 sequence (looked up): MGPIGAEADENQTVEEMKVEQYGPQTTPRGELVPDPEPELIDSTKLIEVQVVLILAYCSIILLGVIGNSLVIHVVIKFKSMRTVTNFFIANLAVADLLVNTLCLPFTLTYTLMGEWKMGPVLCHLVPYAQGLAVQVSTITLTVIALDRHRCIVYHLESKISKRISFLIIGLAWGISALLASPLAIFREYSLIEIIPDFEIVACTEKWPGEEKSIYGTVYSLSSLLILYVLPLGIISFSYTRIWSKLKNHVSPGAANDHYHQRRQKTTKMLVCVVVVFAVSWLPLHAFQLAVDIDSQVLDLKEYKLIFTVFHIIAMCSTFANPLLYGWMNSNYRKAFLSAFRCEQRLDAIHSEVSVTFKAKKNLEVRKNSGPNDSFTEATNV


Key:
Y2 receptor [1] = biological target: T1, Y2 receptor; test: Y2 receptor ACTOne based FLIPR assay (cAMP biosensor); assay type: cell-based
From the text: ACTOne™ is an easily scaleable cAMP biosensor HTS platform for measurement of Gs and Gi coupled 7™ receptor signalling from BD Biosciences (San Jose, Calif.). The cells express a biosensor developed around a modified rat olfactory cyclic nucleotide gated (CNG) calcium channel—a fairly non-discriminatory ion channel that responds to cAMP and cGMP. The CNG has been engineered to be cAMP selective and thus function as a cAMP responsive biosensor that signals through calcium or membrane potential responsive dyes. Y2 or Y4 receptor expressing ACTOne HEK-293 cells are obtained from BD Biosciences. The cells are loaded with a calcium responsive dye that only distributes in the cytoplasm. Probenecid, an inhibitor of the organic anion transporter is added to prevent the dye from leaving the cell. A phosphodiesterase inhibitor is added to prevent formatted cAMP from being degraded. Isoproterenol (an β1/β2 agonist) is added to activate the adenylate cyclase. When an Y2 or Y4 receptor agonist is added, the adenylate cyclase is inactivated. The decreased calcium concentration in the cytoplasm is then detected as an increase in fluorescence. Together with the test substance, Isoproterenol at a concentration matching EC80, is added to all wells. • The cells are plated out in Greiner 384-well plates. […] The plates are covered with tinfoil to avoid light (the dye can be excited by the daylight, which results in higher baseline and variation). • The FLIPR (FLIPRtetra from Molecular Devices, CA, USA) adds 1 μl sample and 1 μl isoproterenol (0.05 μM final concentration) at the same time. • The fluorescence signal from the wells is measured 330 seconds after sample addition on the FLIPR.

in vivo = settings: Göttingen, minipig, iv, 12 nmol/kg
Summary of the method: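 Catheterised mini-pigs received compound i.v. at 10 nmol/kg in pH 4.0 phosphate/NaCl/tween vehicle, or alternatively i.v. or s.c. at 1–30 nmol/kg in pH 8.0 K2HPO4/tween. Stabilised plasma was sampled up to 13 days and assayed by LC-MS (LLOQ 2 nM). Half-life came from non-compartmental analysis of individual animal profiles.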

Y2 receptor [2] = biological target: T2, Y2 receptor; test: cell-based or functional assay
Y4 receptor = Y4 receptor (UniProt P50391 1-375, limits assumed); test: cell-based or functional assay
Sequence of Y4 receptor (P50391 whole entry): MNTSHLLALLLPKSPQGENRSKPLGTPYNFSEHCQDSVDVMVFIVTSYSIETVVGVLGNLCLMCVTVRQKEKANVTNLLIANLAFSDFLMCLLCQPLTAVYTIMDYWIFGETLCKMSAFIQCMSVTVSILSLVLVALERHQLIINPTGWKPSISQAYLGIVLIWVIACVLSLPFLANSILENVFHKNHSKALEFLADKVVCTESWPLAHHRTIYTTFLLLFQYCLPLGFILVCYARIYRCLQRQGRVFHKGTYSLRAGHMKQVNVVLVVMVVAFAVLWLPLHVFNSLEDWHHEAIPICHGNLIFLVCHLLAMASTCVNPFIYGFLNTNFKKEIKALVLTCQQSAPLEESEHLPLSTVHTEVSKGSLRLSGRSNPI

EC50 (Y2 receptor [1]; Table 2, PP analogues, ACTOne HEK-293 cells, read-out: Y2 cAMP EC50) [nM]	half-life (in vivo) [h]	Y2 cAMP EC50 (Y2 receptor [2]) [nM]	Y4 cAMP EC50 (Y4 receptor) [nM]	Molecule	EC50 (Y2 receptor [1]) [nM]
> 1000	46	–	–	CC[C@H](C)[C@H](NC(=O)[C@H](Cc1ccc(O)cc1)NC(=O)[C@H](CCCNC(=N)N)NC(=O)[C@H](CCCNC(=N)N)NC(=O)[C@H](CC(C)C)NC(=O)[C@H](CC(=O)O)NC(=O)[C@H](C)NC(=O)[C@H](C)NC(=O)[C@H](Cc1ccc(O)cc1)NC(=O)[C@H](CCC(N)=O)NC(=O)[C@H](CCCCNC(=O)COCCOCCNC(=O)COCCOCCNC(=O)CC[C@H](NC(=O)CCCCCCCCCCCCCCCCC(=O)O)C(=O)O)NC(=O)[C@H](CC(C)C)NC(=O)[C@H](CCC(N)=O)NC(=O)[C@H](CCC(=O)O)NC(=O)[C@@H]1CCCN1C(=O)[C@@H](NC(=O)[C@H](C)NC(=O)[C@H](CC(N)=O)NC(=O)[C@H](CC(=O)O)NC(=O)CNC(=O)[C@@H]1CCCN1C(=O)[C@H](Cc1ccc(O)cc1)NC(=O)[C@@H](NC(=O)[C@@H]1CCCN1C(=O)[C@H](CCC(=O)O)NC(=O)[C@H](CC(C)C)NC(=O)[C@@H]1CCCN1)C(C)C)[C@@H](C)O)C(=O)N[C@@H](CC(N)=O)C(=O)N[C@@H](CC(C)C)C(=O)N[C@@H](CC(C)C)C(=O)N[C@H](C(=O)N[C@@H](CCCNC(=N)N)C(=O)N1CCC[C@H]1C(=O)N[C@@H](CCCNC(=N)N)C(=O)N[C@@H](Cc1ccc(O)cc1)C(N)=O)[C@@H](C)O [SEQ ID NO: 32, N-epsilon18-[2-(2-{2-[2-(2-{2-[(S)-4-Carboxy-4-(17-carboxyheptadecanoylamino)butyrylamino]ethoxy}ethoxy)acetylamino]-ethoxy}ethoxy)acetyl][Lys18,Leu17,Leu30]hPP2-36] (H-PLEPVYPGDNATPEQLK([AEEA-AEEA-γGlu-C18 diacid])QYAADLRRYINLLTRPRY-NH2; N-terminus and C-terminus assumed)	–
–	–	> 1000	0.4	PLEPVYPGDNATPEQLK([AEEA-AEEA-γGlu-C18 diacid])QYAADLRRYINLLTRPRY (ends and bridges not checked)	–
–	–	> 1000	> 1000	PLEPVYPGDNATPEQLAQYAADLRRYINLLTK([AEEA-AEEA-γGlu-Trx-C20 diacid])PRY (ends and bridges not checked)	–
–	–	> 1000	0.8	PLEPVYPGDNATPEQLK([AEEA-AEEA-γGlu-Trx-C20 diacid])QYAADLRRYINLLTRPRY (ends and bridges not checked)	–
–	–	> 1000	> 890	PLEPVYPGDNATPEQLAQYAADLRRYIK([AEEA-AEEA-γGlu-Trx-C20 diacid])LLTRPRY (ends and bridges not checked)	–
–	–	> 1000	7	PLEPVYPGDNATPEQLAQYAADLRK([AEEA-AEEA-γGlu-Trx-C20 diacid])YINLLTRPRY (ends and bridges not checked)	–

The next lines start with the molecule.

Molecule	EC50 (Y2 receptor [1]; Table 2, PP analogues, ACTOne HEK-293 cells, read-out: Y2 cAMP EC50) [nM]	half-life (in vivo) [h]	Y2 cAMP EC50 (Y2 receptor [2]) [nM]	Y4 cAMP EC50 (Y4 receptor) [nM]	EC50 (Y2 receptor [1]) [nM]
CC[C@H](C)[C@H](NC(=O)[C@H](Cc1ccc(O)cc1)NC(=O)[C@H](CCCNC(=N)N)NC(=O)[C@H](CCCNC(=N)N)NC(=O)[C@H](CC(C)C)NC(=O)[C@H](CC(=O)O)NC(=O)[C@H](C)NC(=O)[C@H](C)NC(=O)[C@H](Cc1ccc(O)cc1)NC(=O)[C@H](CCC(N)=O)NC(=O)[C@H](C)NC(=O)[C@H](CC(C)C)NC(=O)[C@H](CCC(N)=O)NC(=O)[C@H](CCC(=O)O)NC(=O)[C@@H]1CCCN1C(=O)[C@H](CCCCNC(=O)COCCOCCNC(=O)COCCOCCNC(=O)CC[C@H](NC(=O)[C@H]1CC[C@H](CNC(=O)CCCCCCCCCCCCCCCCCCC(=O)O)CC1)C(=O)O)NC(=O)[C@H](C)NC(=O)[C@H](CC(N)=O)NC(=O)[C@H](CC(=O)O)NC(=O)CNC(=O)[C@@H]1CCCN1C(=O)[C@H](Cc1ccc(O)cc1)NC(=O)[C@@H](NC(=O)[C@@H]1CCCN1C(=O)[C@H](CCC(=O)O)NC(=O)[C@H](CC(C)C)NC(=O)[C@@H]1CCCN1C(=O)[C@H](C)N)C(C)C)C(=O)N[C@@H](CCC(N)=O)C(=O)N[C@@H](CC(C)C)C(=O)N[C@@H](CC(C)C)C(=O)N[C@H](C(=O)N[C@@H](CCCNC(=N)N)C(=O)N1CCC[C@H]1C(=O)N[C@@H](CCCNC(=N)N)C(=O)N[C@@H](Cc1ccc(O)cc1)C(N)=O)[C@@H](C)O [SEQ ID NO: 18, N-epsilon13-[2-(2-{2-[2-(2-{2-[(S)-4-Carboxy-4-({trans-4-[(19-carboxynonadecanoylamino)methyl]cyclohexanecarbonyl}amino)butyrylamino]-ethoxy}ethoxy)acetylamino]ethoxy}ethoxy)acetyl][Lys13,Leu17,Gln29,Leu30]hPP(1-36)] (H-APLEPVYPGDNAK([AEEA-AEEA-γGlu-Trx-C20 diacid])PEQLAQYAADLRRYIQLLTRPRY-NH2)	–	–	–	–	> 1000
PLEPVYPGDK([AEEA-AEEA-γGlu-C18 diacid])ATPEQLAQYAADLRRYINLLTRPRY (ends and bridges not checked)	–	–	> 1000	1	–
PLEPVYPGDNATPEQLAQYAADLRRYINLLTK([AEEA-AEEA-γGlu-C18 diacid])PRY (ends and bridges not checked)	–	–	> 1000	> 1000	–
PLEPVYPGDNATPEQLAQYAADLRK([AEEA-AEEA-γGlu-C18 diacid])YINLLTRPRY (ends and bridges not checked)	–	–	> 1000	5	–
PLEPVYPGDNATPEQLAQYAADLRRYINLLTRPK([AEEA-AEEA-γGlu-C18 diacid])Y (ends and bridges not checked)	–	–	> 1000	> 1000	–
